Results taken from patent US20050187147A1 (published 2005).
Square brackets hold non-standard residues; d marks the D form. Primed or numbered codes have the meaning given here. * marks the point of attachment. 10Ca = carbamate linkage conjugating the peptide-PEG to paclitaxel at C10; ALK(6) = not defined here; 10Es = not defined here; Cbz = O=C(OCc1ccccc1)*; PEG(13) = PEG13 linker; Piv = CC(C)(C)C(=O)*; OBn = c1ccc(CO*)cc1; PXL = paclitaxel

Each binder was assayed against Human Src kinase (Upstate #14-326) (human, UniProt P12931 1-536) (assay: cell-based or functional assay).

Average src kinase activity | Binder
0 % of parent peptide activity | Ac-E(OBn)YIYGSFK(Cbz)-{PEG(13)-10Ca-PXL} [Ac-E(Bzl)YIYGSFK(CBz)-PEG(13)-10Ca-PXL]
0 % of parent peptide activity | Piv-YIFGSFR-{PEG(13)-10Ca-PXL} [Pv-YIFGSFR-PEG(13)-10Ca-PXL]
0 % of parent peptide activity | Cbz-YIYGSFK(Cbz)-{ALK(6)-10Es-PXL} (reading uncertain) [CBz-YIYGSFK(CBz)-ALK(6)-10Es-PXL]
0 % of parent peptide activity | Ac-EYIFGSFK-{PEG(13)-10Ca-PXL} [Ac-EYIFGSFK-PEG(13)-10Ca-PXL]
0 % of parent peptide activity | Ac-EYI[dY]GSFK-{PEG(13)-10Ca-PXL} [Ac-EYIyGSFK-PEG(13)-10Ca-PXL]
